{
  "source": "patent US6333311",
  "about": "“Useful properties of human lactoferrin and variants thereof” (Pharming, dated 2001)",
  "binders": {"B1": {"name": "human lysozyme (enzyme)", "chain": "KVFERCELARTLKRLGMDGYRGISLANWMCLAKWESGYNTRATNYNAGDRSTDYGIFQINSRYWCNDGKTPGAVNACHLSCSALLQDNIADAVACAKRVVRDPQGIRAWVAWRNRCQNRDVRQYVQGCGV"}, "B2": {"name": "natural human lactoferrin (ligand)", "chain": "GRRRRSVQWCAVSQPEATKCFQWQRNMRKVRGPPVSCIKRDSPIQCIQAIAENRADAVTLDGGFIYEAGLAPYKLRPVAAEVYGTERQPRTHYYAVAVVKKGGSFQLNELQGLKSCHTGLRRTAGWNVPIGTLRPFLNWTGPPEPIEAAVARFFSASCVPGADKGQFPNLCRLCAGTGENKCAFSSQEPYFSYSGAFKCLRDGAGDVAFIRESTVFEDLSDEAERDEYELLCPDNTRKPVDKFKDCHLARVPSHAVVARSVNGKEDAIWNLLRQAQEKFGKDKSPKFQLFGSPSGQKDLLFKDSAIGFSRVPPRIDSGLYLGSGYFTAIQNLRKSEEEVAARRARVVWCAVGEQELRKCNQWSGLSEGSVTCSSASTTEDCIALVLKGEADAMSLDGGYVYTAGKCGLVPVLAENYKSQQSSDPDPNCVDRPVEGYLAVAVVRRSDTSLTWNSVKGKKSCHTAVDRTAGWNIPMGLLFNQTGSCKFDEYFSQSCAPGSDPRSNLCALCIGDEQGENKCVPNSNERYYGYTGAFRCLAENAGDVAFVKDVTVLQNTDGNNNEAWAKDLKLADFALLCLDGKRKPVTEARSCHLAMAPNHAVVSRMDKVERLKQVLLHQQAKFGRNGSDCPDKFCLFQSETKNLLFNDNTECLARLHGKTTYEKYLGPQYVAGITNLKKCSTSPLLEACEFLRK"}},
  "key": {"[1]": {"target": "human transferrin (human, UniProt P02787)", "assay": "competitive ELISA: hTF as competitor of 12.5 nM biotinylated hLF on hLZ-coated plates"}, "[2]": {"target": "B2", "assay": "solid-phase ligand binding ELISA, hLZ-coated plates"}, "[3]": {"target": "B1", "assay": "competitive ELISA: unlabelled competitor against 12.5 nM biotinylated hLF on hLZ-coated plates"}},
  "data": [
    {"binder": "B1", "values": [
      {"measurement": "binding result", "setting": "[1]", "result": "no binding"},
      {"measurement": "binding result", "setting": "[2]", "result": "binds"}
    ]},
    {"binder": "B2", "values": [
      {"measurement": "IC50", "setting": "[3]", "result": 11.2, "unit": "nM"}
    ]},
    {"binder": "iron-saturated human lactoferrin (ligand) GRRRRSVQWCAVSQPEATKCFQWQRNMRKVRGPPVSCIKRDSPIQCIQAIAENRADAVTLDGGFIYEAGLAPYKLRPVAAEVYGTERQPRTHYYAVAVVKKGGSFQLNELQGLKSCHTGLRRTAGWNVPIGTLRPFLNWTGPPEPIEAAVARFFSASCVPGADKGQFPNLCRLCAGTGENKCAFSSQEPYFSYSGAFKCLRDGAGDVAFIRESTVFEDLSDEAERDEYELLCPDNTRKPVDKFKDCHLARVPSHAVVARSVNGKEDAIWNLLRQAQEKFGKDKSPKFQLFGSPSGQKDLLFKDSAIGFSRVPPRIDSGLYLGSGYFTAIQNLRKSEEEVAARRARVVWCAVGEQELRKCNQWSGLSEGSVTCSSASTTEDCIALVLKGEADAMSLDGGYVYTAGKCGLVPVLAENYKSQQSSDPDPNCVDRPVEGYLAVAVVRRSDTSLTWNSVKGKKSCHTAVDRTAGWNIPMGLLFNQTGSCKFDEYFSQSCAPGSDPRSNLCALCIGDEQGENKCVPNSNERYYGYTGAFRCLAENAGDVAFVKDVTVLQNTDGNNNEAWAKDLKLADFALLCLDGKRKPVTEARSCHLAMAPNHAVVSRMDKVERLKQVLLHQQAKFGRNGSDCPDKFCLFQSETKNLLFNDNTECLARLHGKTTYEKYLGPQYVAGITNLKKCSTSPLLEACEFLRK", "values": [
      {"measurement": "IC50", "setting": "[3]", "result": 15.4, "unit": "nM"}
    ]}
  ]
}
